Data from patent US20150266922.

Key:
[1] = target: T1, SUMO1 EIL peptide SLRFLFEGQRIADNH (SEQ ID NO: 1)
T1 chain: SLRFLFEGQRIADNH

SLRFLYEG (SEQ ID NO: 38) = target: T2, SLRFLYEG (SEQ ID NO: 38)
T2 chain: SLRFLYEG

[2] = target: RanGAP modified with SUMO1, P63165

Chain of SUMO2D71H, P61956 (P61956 other isoform, or with tags, fused parts or gaps): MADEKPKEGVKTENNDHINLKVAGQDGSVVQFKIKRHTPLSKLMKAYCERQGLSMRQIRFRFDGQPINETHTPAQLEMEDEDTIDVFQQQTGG
Chain of SUMO2R61L, P61956 (P61956 1-93 R61L): as the sequence (P61956 other isoform, or with tags, fused parts or gaps) above, with R61L, H71D counted along it
Chain of SUMO2, P61956 (P61956 1-93): as the sequence (P61956 other isoform, or with tags, fused parts or gaps) above, with H71D counted along it

B1: Dipeptidyl peptidase IV (DPPIV) (protein)
chain: SRKTYTLTDYLKNTYRLKLYSLRWISDHEYLYKQENNILVFNAEYGNSSVFLENSTFDEFGHSINDYSISPDGQFILLEYNYVKQWRHSYTASYDIYDLNKRQLITEERIPNNTQWVTWSPVGHKLAYVWNNDIYVKIEPNLPSYRITWTGKEDIIYNGITDWVYEEEVFSAYSALWWSPNGTFLAYAQFNDTEVPLIEYSFYSDESLQYPKTVRVPYPKAGAVNPTVKFFVVNTDSLSSVTNATSIQITAPASMLIGDHYLCDVTWATQERISLQWLRRIQNYSVMDICDYDESSGRWNCLVARQHIEMSTTGWVGRFRPSEPHFTLDGNSFYKIISNEEGYRHICYFQIDKKDCTFITKGTWEVIGIEALTSDYLYYISNEYKGMPGGRNLYKIQLSDYTKVTCLSCELNPERCQYYSVSFSKEAKYYQLRCSGPGLPLYTLHSSVNDKGLRVLEDNSALDKMLQNVQMPSKKLDFIILNETKFWYQMILPPHFDKSKKYPLLLDVYAGPCSQKADTVFRLNWATYLASTENIIVASFDGRGSGYQGDKIMHAINRRLGTFEVEDQIEAARQFSKMGFVDNKRIAIWGWSYGGYVTSMVLGSGSGVFKCGIAVAPVSRWEYYDSVYTERYMGLPTPEDNLDHYRNSTVMSRAENFKQVEYLLIHGTADDNVHFQQSAQISKALVDVGVDFQAMWYTDEDHGIASSTAHQHIYTHMSHFIKQCFSLP
Q: B1 was tested. Which “hydrolysis of GP-AMC by DPPIV” value [1] did it give?
A: The value was “DPPIV is not inhibited by the EIL peptide, also in the presence of 13 µM peptide”.

Q: And the “hydrolysis of GP-AMC by DPPIV” value (SLRFLYEG (SEQ ID NO: 38))?
A: Its value is “It has no inhibitory effect towards DPPIV, in the concentrations measured (up to 50 µM)”.

B2: Dipeptidyl peptidase 8 (DPP8), recombinant (protein)
chain: MWKRSEQMKIKSGKCNMAAAMETEQLGVEIFETADCEENIESQDRPKLEPFYVERYSWSQLKKLLADTRKYHGYMMAKAPHDFMFVKRNDPDGPHSDRIYYLAMSGENRENTLFYSEIPKTINRAAVLMLSWKPLLDLFQATLDYGMYSREEELLRERKRIGTVGIASYDYHQGSGTFLFQAGSGIYHVKDGGPQGFTQQPLRPNLVETSCPNIRMDPKLCPADPDWIAFIHSNDIWISNIVTREERRLTYVHNELANMEEDARSAGVATFVLQEEFDRYSGYWWCPKAETTPSGGKILRILYEENDESEVEIIHVTSPMLETRRADSFRYPKTGTANPKVTFKMSEIMIDAEGRIIDVIDKELIQPFEILFEGVEYIARAGWTPEGKYAWSILLDRSQTRLQIVLISPELFIPVEDDVMERQRLIESVPDSVTPLIIYEETTDIWINIHDIFHVFPQSHEEEIEFIFASECKTGFRHLYKITSILKESKYKRSSGGLPAPSDFKCPIKEEIAITSGEWEVLGRHGSNIQVDEVRRLVYFEGTKDSPLEHHLYVVSYVNPGEVTRLTDRGYSHSCCISQHCDFFISKYSNQKNPHCVSLYKLSSPEDDPTCKTKEFWATILDSAGPLPDYTPPEIFSFESTTGFTLYGMLYKPHDLQPGKKYPTVLFIYGGPQVQLVNNRFKGVKYFRLNTLASLGYVVVVIDNRGSCHRGLKFEGAFKYKMGQIEIDDQVEGLQYLASRYDFIDLDRVGIHGWSYGGYLSLMALMQRSDIFRVAIAGAPVTLWIFYDTGYTERYMGHPDQNEQGYYLGSVAMQAEKFPSEPNRLLLLHGFLDENVHFAHTSILLSFLVRAGKPYDLQIYPQERHSIRVPESGEHYELHLLHYLQENLGSRIAALKVI
Q: B2 was tested. Which “hydrolysis of GP-AMC by recombinant DPP8” value [1] did it give?
A: Its value is “pure recombinant DPP8 and DPP9 are inhibited by the EIL peptide, also in the absence of SUMO1”.

B3: Dipeptidyl peptidase 9 (DPP9), recombinant wild-type (protein)
chain: MRKVKKLRLDKENTGSWRSFSLNSEGAERMATTGTPTADRGDAAATDDPAARFQVQKHSWDGLRSIIHGSRKYSGLIVNKAPHDFQFVQKTDESGPHSHRLYYLGMPYGSRENSLLYSEIPKKVRKEALLLLSWKQMLDHFQATPHHGVYSREEELLRERKRLGVFGITSYDFHSESGLFLFQASNSLFHCRDGGKNGFMVSPMKPLEIKTQCSGPRMDPKICPADPAFFSFINNSDLWVANIETGEERRLTFCHQGLSNVLDDPKSAGVATFVIQEEFDRFTGYWWCPTASWEGSEGLKTLRILYEEVDESEVEVIHVPSPALEERKTDSYRYPRTGSKNPKIALKLAEFQTDSQGKIVSTQEKELVQPFSSLFPKVEYIARAGWTRDGKYAWAMFLDRPQQWLQLVLLPPALFIPSTENEEQRLASARAVPRNVQPYVVYEEVTNVWINVHDIFYPFPQSEGEDELCFLRANECKTGFCHLYKVTAVLKSQGYDWSEPFSPGEDEFKCPIKEEIALTSGEWEVLARHGSKIWVNEETKLVYFQGTKDTPLEHHLYVVSYEAAGEIVRLTTPGFSHSCSMSQNFDMFVSHYSSVSTPPCVHVYKLSGPDDDPLHKQPRFWASMMEAASCPPDYVPPEIFHFHTRSDVRLYGMIYKPHALQPGKKHPTVLFVYGGPQVQLVNNSFKGIKYLRLNTLASLGYAVVVIDGRGSCQRGLRFEGALKNQMGQVEIEDQVEGLQFVAEKYGFIDLSRVAIHGWSYGGFLSLMGLIHKPQVFKVAIAGAPVTVWMAYDTGYTERYMDVPENNQHGYEAGSVALHVEKLPNEPNRLLILHGFLDENVHFFHTNFLVSQLIRAGKPYQLQIYPNERHSIRCPESGEHYEVTLLHFLQEYL
Q: How did the “hydrolysis of GP-AMC by DPP9” value (SUMO2, P61956) turn out when B3 was run?
A: Its value is “SUMO1 but not SUMO2 can regulate DPP9 activity”.

Q: And the “hydrolysis of GP-AMC by DPP9” value [2]?
A: The value was “DPP9 activity is increased when incubated with RanGAP modified by SUMO1, but not by unmodified RanGAP”.

Q: And the “hydrolysis of GP-AMC by DPP9” value (SUMO1E67A, P63165)?
A: Its value is “this activation was not observed in the presence of SUMO1 mutated in a single amino acid: SUMO1E67A”.

Q: What about the “hydrolysis of GP-AMC by DPP9” value (SUMO2R61L, P61956) of the same protein?
A: Its value is “This activation was not observed in the presence of SUMO2R61L”.

Q: And the “hydrolysis rate of GP-AMC by DPP9” value (SUMO1, P63165)?
A: The value was “the hydrolysis rate of GP-AMC by DPP9 was increased in the presence of SUMO1 in comparison to control reactions”.

Q: What about the “hydrolysis of GP-AMC by DPP9” value (RanGAP) of the same protein?
A: The value was “DPP9 activity is increased when incubated with RanGAP modified by SUMO1, but not by unmodified RanGAP”.

Q: And the “hydrolysis of GP-AMC by recombinant DPP9” value [1]?
A: Its value is “pure recombinant DPP8 and DPP9 are inhibited by the EIL peptide, also in the absence of SUMO1”.

Q: What about the “hydrolysis of GP-AMC by DPP9” value (SUMO2D71H, P61956) of the same protein?
A: The value was “DPP9 activity was increased in the presence of SUMO2 mutated in a single amino acid: D71H”.
